Test results from patent US20030083294, “Modulators of pharmacological agents” (published 2003).

Biological target: coagulation factor IXa (FIXa) (Homo sapiens, UniProt P00740;P00740 P00740:47-191,P00740:227-461)
Assay: KD comparable to 9.3t

AUGGGGACUAUACCGGCAAUCGUGCAUCCCCAU (ssRNA, 2'-F pyrimidines, 2'-OH purines) [9.20t]: binds.
